Bridges are numbered along the chain shown (N, C = ends). Where no end group is shown, it is not given here. [ ]: non-standard residue; d: D form. NMeR = CN[C@@H](CCCNC(=N)N)C(=O)O; Pen = CC(C)(S)[C@H](N)C(=O)O
Assay: Simulated Intestinal Fluid (SIF) Stability Assay
Type: in vitro ADME
Conditions: compared to SEQ ID NO: 39 with Cys or to monomer subunits
Procedure: Simulated Intestinal Fluid (SIF) Stability Assay
Studies were carried out in simulated intestinal fluid (SIF) to evaluate gastric stability of the dimer molecules of the instant invention. SIF was prepared by adding 6.8 g of monobasic potassium phosphate and 10.0 g of pancreatin to 1.0 L of water. After dissolution, the pH was adjusted to 6.8 using NaOH. DMSO stocks (2 mM) were first prepared for the test compounds. Aliquots of the DMSO solutions were dosed into 6 individual tubes, each containing 0.5 mL of SIF, which had been pre-warmed to 37° C.
The final test compound concentration was 20 μM. The vials were kept in a benchtop Thermomixer® for the duration of the experiment. At each timepoint (0, 5, 10, 20, 40, and 60 minutes), 1.0 mL of acetonitrile containing 1% formic acid was added to one vial to terminate the reaction. Samples were stored at 4° C. until the end of the experiment. […] Aliquots of the supernatant were removed, diluted 1:1 into distilled water containing internal standard, and analyzed by LCMS/MS. Percent remaining at each timepoint was calculated based on the peak area response ratio of test to compound to internal standard. Time 0 was set to 100%, and all later timepoints were calculated relative to time 0. Half-lives were calculated by fitting to a first-order exponential decay equation using GraphPad. […]

## SEQ ID NO: 102: homodimer of monomer subunit with Pen in place of Cys and N-Me-Arg, dimerized at C-termini (K[Pen][NMeR]SDTL[Pen]W; disulfide 2-8 (inferred); also: homodimer dimerized at C-termini)
  stability in simulated intestinal fluids (SIF) (in words): increased stability significantly

— patent US9273093B2, “α4β7 peptide dimer antagonists” (Protagonist Therapeutics, Inc., priority 2012, dated 2016)
